The text below walks through data of patent US10967068B2, “Stability-modulating linkers for use with antibody drug conjugates” (priority 2014, dated 2021).

*1 amine or outer side, *2 acyl side, *3 side chain or, on linkers, in order; H or OH if unused. Where a SMILES comes first, the peptide text is derived from it. [ ]: non-standard residue; d: D form. The star is where a group is joined. Dolaproine = CO[C@@H]([C@@H]1CCCN1)[C@@H](C)C(=O)O; Dil = CC[C@H](C)[C@H](NC)[C@@H](CC(=O)O)OC; PABC = O=C(OCc1ccc(N[*:1])cc1)[*:2]; Doe = c1ccc(C[C@H](N*)c2nccs2)cc1; Cit = NC(=O)NCCC[C@H](N)C(=O)O; dLac = C[C@@H](O)C(=O)O; Lac = C[C@H](O)C(=O)O; Aib = CC(C)(N)C(=O)O; Moc = COC(=O)*

A short description of the series: In Vitro Stability Assay—Mouse Plasma. The class given is in vitro ADME. As to conditions: attachment position L11B; for Conjugate stability (%): % DAR remaining after plasma 3 or 4.5 days; for DAR: before plasma incubation.

With `CC[C@H](C)[C@@H]([C@@H](CC(=O)N1CCC[C@H]1[C@H](OC)[C@@H](C)C(=O)N[C@@H](Cc1ccccc1)c1nccs1)OC)N(C)C(=O)[C@@H](NC(=O)C(C)(C)NC(=O)OCc1ccc(NC(=O)[C@H](CCCNC(N)=O)NC(=O)[C@@H](NC(=O)[C@H](CCCCN)NC(=O)OC)C(C)C)cc1)C(C)C` [Example 32, N˜2˜-(methoxycarbonyl)-L-lysylvalyl-N-{4-[(8S,11S,12R)-11-[(2S)-butan-2-yl]-12-(2-{(2S)-2-[(1R,2R)-1-methoxy-2-methyl-3-oxo-3-{[(1S)-2-phenyl-1-(1,3-thiazol-2-yl)ethyl]amino}propyl]pyrrolidin-1-yl}-2-oxoethyl)-5,5,10-trimethyl-3,6,9-trioxo-8-(propan-2-yl)-2,13-dioxa-4,7,10-triazatetradec-1-yl]phenyl}-N˜5˜-carbamoyl-L-ornithinamide] (Moc-KV[Cit][PABC][Aib]V[Dil][Dolaproine]-Doe), the “DAR after plasma incubation for 3 to 4.5 days” value (from here on “DAR after plasma incubation”) worked out at 0.08, the “Conjugate stability (%)” value is 5% and the DAR is 1.53.

Turning to `CC[C@H](C)[C@@H]([C@@H](CC(=O)N1CCC[C@H]1[C@H](OC)[C@@H](C)C(=O)N[C@@H](Cc1ccccc1)c1nccs1)OC)N(C)C(=O)[C@@H](NC(=O)C(C)(C)NC(=O)OCc1ccc(NC(=O)[C@H](CCCNC(N)=O)NC(=O)[C@@H](NC(=O)[C@@H](N)CCCCN)C(C)C)cc1)C(C)C` [Example 33, L-lysylvalyl-N-{4-[(8S,11S,12R)-11-[(2S)-butan-2-yl]-12-(2-{(2S)-2-[(1R,2R)-1-methoxy-2-methyl-3-oxo-3-{[(1S)-2-phenyl-1-(1,3-thiazol-2-yl)ethyl]amino}propyl]pyrrolidin-1-yl}-2-oxoethyl)-5,5,10-trimethyl-3,6,9-trioxo-8-(propan-2-yl)-2,13-dioxa-4,7,10-triazatetradec-1-yl]phenyl}-N˜5˜-carbamoyl-L-ornithinamide] (H-KV[Cit][PABC][Aib]V[Dil][Dolaproine]-Doe), the “DAR after plasma incubation” value was 0.52, the “Conjugate stability (%)” value amounted to 34% and the DAR was determined as 1.53.

For the compound `CC[C@H](C)[C@@H]([C@@H](CC(=O)N1CCC[C@H]1[C@H](OC)[C@@H](C)C(=O)N[C@@H](Cc1ccccc1)c1nccs1)OC)N(C)C(=O)[C@@H](NC(=O)C(C)(C)NC(=O)OCc1ccc(NC(=O)[C@H](CCCNC(N)=O)NC(=O)[C@@H](NC(=O)[C@H](CCCCN)NC(=O)[C@H](C)N)C(C)C)cc1)C(C)C` [Example 34, L-alanyl-L-lysylvalyl-N-{4-[(8S,11S,12R)-11-[(2S)-butan-2-yl]-12-(2-{(2S)-2-[(1R,2R)-1-methoxy-2-methyl-3-oxo-3-{[(1S)-2-phenyl-1-(1,3-thiazol-2-yl)ethyl]amino}propyl]pyrrolidin-1-yl}-2-oxoethyl)-5,5,10-trimethyl-3,6,9-trioxo-8-(propan-2-yl)-2,13-dioxa-4,7,10-triazatetradec-1-yl]phenyl}-N˜5˜-carbamoyl-L-ornithinamide] (H-AKV[Cit][PABC][Aib]V[Dil][Dolaproine]-Doe), the “DAR after plasma incubation” value worked out at 0.86, the “Conjugate stability (%)” value was 50% and the DAR is 1.72.

As for `CC[C@H](C)[C@@H]([C@@H](CC(=O)N1CCC[C@H]1[C@H](OC)[C@@H](C)C(=O)N[C@@H](Cc1ccccc1)c1nccs1)OC)N(C)C(=O)[C@@H](NC(=O)C(C)(C)NC(=O)OCc1ccc(NC(=O)[C@H](CCCNC(N)=O)NC(=O)[C@@H](NC(=O)[C@H](CCCCN)NC(=O)[C@@H](C)N)C(C)C)cc1)C(C)C` [Example 35, D-alanyl-L-lysylvalyl-N-{4-[(8S,11S,12R)-11-[(2S)-butan-2-yl]-12-(2-{(2S)-2-[(1R,2R)-1-methoxy-2-methyl-3-oxo-3-{[(1S)-2-phenyl-1-(1,3-thiazol-2-yl)ethyl]amino}propyl]pyrrolidin-1-yl}-2-oxoethyl)-5,5,10-trimethyl-3,6,9-trioxo-8-(propan-2-yl)-2,13-dioxa-4,7,10-triazatetradec-1-yl]phenyl}-N˜5˜-carbamoyl-L-ornithinamide] (H-[dA]KV[Cit][PABC][Aib]V[Dil][Dolaproine]-Doe), the “DAR after plasma incubation” value was 1.07, the “Conjugate stability (%)” value came to 58% and the DAR is listed as 1.82.

For `CC[C@H](C)[C@@H]([C@@H](CC(=O)N1CCC[C@H]1[C@H](OC)[C@@H](C)C(=O)N[C@@H](Cc1ccccc1)c1nccs1)OC)N(C)C(=O)[C@@H](NC(=O)C(C)(C)NC(=O)OCc1ccc(NC(=O)[C@H](CCCNC(N)=O)NC(=O)[C@@H](NC(=O)[C@H](CCCCN)NC(=O)CNC(C)=O)C(C)C)cc1)C(C)C` [Example 37, N-acetylglycyl-L-lysyl-L-valyl-N-{4-[(8S,11S,12R)-11-[(2S)-butan-2-yl]-12-(2-{(2S)-2-[(1R,2R)-1-methoxy-2-methyl-3-oxo-3-{[(1S)-2-phenyl-1-(1,3-thiazol-2-yl)ethyl]amino}propyl]pyrrolidin-1-yl}-2-oxoethyl)-5,5,10-trimethyl-3,6,9-trioxo-8-(propan-2-yl)-2,13-dioxa-4,7,10-triazatetradec-1-yl]phenyl}-N˜5˜-carbamoyl-L-ornithinamide] (Ac-GKV[Cit][PABC][Aib]V[Dil][Dolaproine]-Doe), the “DAR after plasma incubation” value is 0.85, the “Conjugate stability (%)” value came out at 44% and the DAR came out at 1.94.

`CC[C@H](C)[C@@H]([C@@H](CC(=O)N1CCC[C@H]1[C@H](OC)[C@@H](C)C(=O)N[C@@H](Cc1ccccc1)c1nccs1)OC)N(C)C(=O)[C@@H](NC(=O)C(C)(C)NC(=O)OCc1ccc(NC(=O)[C@H](CCCNC(N)=O)NC(=O)[C@@H](NC(=O)[C@H](CCCCN)NC(=O)[C@@H](N)CO)C(C)C)cc1)C(C)C` [Example 38, L-seryl-L-lysylvalyl-N-{4-[(8S,11S,12R)-11-[(2S)-butan-2-yl]-12-(2-{(2S)-2-[(1R,2R)-1-methoxy-2-methyl-3-oxo-3-{[(1S)-2-phenyl-1-(1,3-thiazol-2-yl)ethyl]amino}propyl]pyrrolidin-1-yl}-2-oxoethyl)-5,5,10-trimethyl-3,6,9-trioxo-8-(propan-2-yl)-2,13-dioxa-4,7,10-triazatetradec-1-yl]phenyl}-N˜5˜-carbamoyl-L-ornithinamide] (H-SKV[Cit][PABC][Aib]V[Dil][Dolaproine]-Doe): the “DAR after plasma incubation” value is 1.32, the “Conjugate stability (%)” value is recorded as 90% and the DAR was determined as 1.47.

On to `CC[C@H](C)[C@@H]([C@@H](CC(=O)N1CCC[C@H]1[C@H](OC)[C@@H](C)C(=O)N[C@@H](Cc1ccccc1)c1nccs1)OC)N(C)C(=O)[C@@H](NC(=O)C(C)(C)NC(=O)OCc1ccc(NC(=O)[C@H](CCCNC(N)=O)NC(=O)[C@@H](NC(=O)[C@H](CCCCN)NC(=O)[C@H](N)CO)C(C)C)cc1)C(C)C` [Example 39, D-seryl-L-lysylvalyl-N-{4-[(8S,11S,12R)-11-[(2S)-butan-2-yl]-12-(2-{(2S)-2-[(1R,2R)-1-methoxy-2-methyl-3-oxo-3-{[(1S)-2-phenyl-1-(1,3-thiazol-2-yl)ethyl]amino}propyl]pyrrolidin-1-yl}-2-oxoethyl)-5,5,10-trimethyl-3,6,9-trioxo-8-(propan-2-yl)-2,13-dioxa-4,7,10-triazatetradec-1-yl]phenyl}-N˜5˜-carbamoyl-L-ornithinamide] (H-[dS]KV[Cit][PABC][Aib]V[Dil][Dolaproine]-Doe), for which the “DAR after plasma incubation” value came out at 1.53, the “Conjugate stability (%)” value is recorded as 82% and the DAR was found to be 1.87.

Consider `CC[C@H](C)[C@@H]([C@@H](CC(=O)N1CCC[C@H]1[C@H](OC)[C@@H](C)C(=O)N[C@@H](Cc1ccccc1)c1nccs1)OC)N(C)C(=O)[C@@H](NC(=O)C(C)(C)NC(=O)OCc1ccc(NC(=O)[C@H](CCCNC(N)=O)NC(=O)[C@@H](NC(=O)[C@H](CCCCN)NC(=O)[C@H](C)O)C(C)C)cc1)C(C)C` [Example 40, N˜2˜-[(2S)-2-hydroxypropanoyl]-L-lysylvalyl-N-{4-[(8S,11S,12R)-11-[(2S)-butan-2-yl]-12-(2-{(2S)-2-[(1R,2R)-1-methoxy-2-methyl-3-oxo-3-{[(1S)-2-phenyl-1-(1,3-thiazol-2-yl)ethyl]amino}propyl]pyrrolidin-1-yl}-2-oxoethyl)-5,5,10-trimethyl-3,6,9-trioxo-8-(propan-2-yl)-2,13-dioxa-4,7,10-triazatetradec-1-yl]phenyl}-N˜5˜-carbamoyl-L-ornithinamide] (H-[Lac]KV[Cit][PABC][Aib]V[Dil][Dolaproine]-Doe), for which the “DAR after plasma incubation” value was found to be 1.08, the “Conjugate stability (%)” value is on record as 58% and the DAR turned out to be 1.87.

Take `CC[C@H](C)[C@@H]([C@@H](CC(=O)N1CCC[C@H]1[C@H](OC)[C@@H](C)C(=O)N[C@@H](Cc1ccccc1)c1nccs1)OC)N(C)C(=O)[C@@H](NC(=O)C(C)(C)NC(=O)OCc1ccc(NC(=O)[C@H](CCCNC(N)=O)NC(=O)[C@@H](NC(=O)[C@H](CCCCN)NC(=O)[C@@H](C)O)C(C)C)cc1)C(C)C` [Example 41, N˜2˜-[(2R)-2-hydroxypropanoyl]-L-lysylvalyl-N-{4-[(8S,11S,12R)-11-[(2S)-butan-2-yl]-12-(2-{(2S)-2-[(1R,2R)-1-methoxy-2-methyl-3-oxo-3-{[(1S)-2-phenyl-1-(1,3-thiazol-2-yl)ethyl]amino}propyl]pyrrolidin-1-yl}-2-oxoethyl)-5,5,10-trimethyl-3,6,9-trioxo-8-(propan-2-yl)-2,13-dioxa-4,7,10-triazatetradec-1-yl]phenyl}-N˜5˜-carbamoyl-L-ornithinamide] (H-[dLac]KV[Cit][PABC][Aib]V[Dil][Dolaproine]-Doe): the “DAR after plasma incubation” value is on record as 0.91, the “Conjugate stability (%)” value worked out at 49% and the DAR came to 1.86.
